Data as given in US20130216547A1 (Regeneron, published 2013).
Numbering of substitutions follows the chain as printed. Names and notes keep the numbering of the source.

T1: human big-endothelin-1 (big-ET-1) (human)
T1 construct: 38 amino acid peptide; also called human big-ET-1; hBig-ET-1
T1 peptide: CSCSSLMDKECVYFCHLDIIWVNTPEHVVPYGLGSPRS

T2: mouse big-ET-1 (mouse)
T2 construct: also called mBig-ET-1
T2 peptide: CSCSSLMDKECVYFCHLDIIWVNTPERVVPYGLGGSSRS

T3: small-ET-1 (endothelin-1) (human)
T3 construct: 21 amino acid peptide, same for mouse and human; also called human small-ET-1; EDN-1
T3 peptide: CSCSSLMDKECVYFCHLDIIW

B1: H4H6323P (antibody, V domains shown)
VH: QITLKESGPPLVKPTQTLTLTCTFSGFSLNTNGMGVGWIRQPPGKALEWLTLIYWNDDKRYSPSLKTRLTITKDTSKNQVVLTMTNMDPVDTATYYCARFGSGTYWGQGTLVTVSS
VL: DIVMTQSPLSLPVTPGEPASISCRSSQSLLHSYGYNFLDWFLQKPGQSPQLLIYLGSHRASGVPDRFSGSGSGTDFTLKISRVEAEDVGVYYCMQALQTPLTFGGGTKVEIK
notes: Human IgG4 Fc (prefix H4H)
B2: H4H6492N2 (antibody, V domains shown)
VH: EVQLVESGGGLVKPGGSLRVSCVASGFTFSNAWMTWVRQTPGKGLEWVGRIKSRTDGGTVDYVAPVKGRFTISRDDSKNTLYLQMNSLKAEDTAVYYCRADLDYWGQGTLVTVSS
VL: DVVMTQSPLSLPVSLGQPASISCRSSQSLVHSDGITYLNWFQQRPGQSPRRLIYKISNRDSGVPDRFSGSGSGTDFTLKFSRVEAEDVGVYFCMQGTHWPYTFGQGTKLEIK
notes: Human IgG4 Fc (prefix H4H)
B3: H4H6329P (antibody, V domains shown)
VH: QVQLVESGGGVVQPGRSLRLSCAASGFTFGSYGMHWVRQAPGKGLEWVAVIWYDGSDEYYTDSVKGRFTVSRDNSKYTLYLQMNSLRADDTAVYYCARDGYRTRGNYFDYWGQGTLVTVSS
VL: DVVMTQSPLSLPVALGQPASISCRSSQSLVYSDGNTYLNWFQQRPGQSPRRLIYKVSNRDSGVPDRFGGSGSGTDFTLKISRVEAEDVGLYYCMQGTHWPPTFGGGTKVEIK
notes: Human IgG4 Fc (prefix H4H)
B4: H4H6353P (antibody, V domains shown)
VH: EVQLVESGGGLVKPGGSLRLSCAASGFSFNYAWMSWVRQAPGKGLEWIGRIKSKINGGTTDYTAPVKGRFTISRDDSKNTLYLQMNSLKTEDTAVYYCRGDEDFWGQGTLVTVSS
VL: B3 VL with A14T, N35F, Q42R, G68S, K79R, L90I, P101Y, G105Q, V109L
notes: Human IgG4 Fc (prefix H4H)
B5: H2M6490N (antibody, V domains shown)
VH: EVQLLESGGGLVQPGGSLRLSCAASGFTFSSYAMTWVRQAPGKGLECISAISGSGYSTYYADSMKGRFSISRDNSKNTLYLQMNRLRAEDTAVYYCTKGGRILEWLLPFDFWGQGTLVTVSS
VL: B3 VL with A14T, N39I, G68S, K79I
notes: Hybridoma antibody, human variable domains, mouse IgG2 Fc (prefix H2M)
B6: H4H6338P (antibody, V domains shown)
VH: EVQLVESGGGLVQPGGSLRLSCAASGFAFSSYAMTWVRQTPGKGLEWVSSISGSGGSTYYADSVKGRFTISRDNSKNTLYLQMNSLRAEDTAVYYCAKARTGTHAFDIWGQGTMVTVSS
VL: not shown
notes: Human IgG4 Fc (prefix H4H)
B7: H4H6345P (antibody, V domains shown)
VH: B6 VH with A28I, T40A, S50A, G56V, A88I, A97G
VL: DIQMTQSPSTLSASVGDRVTITCRASQSISRWLAWYQQKPGKAPKLLIYKASSLETGVPSRFSGSGSGTEFTLTISSLQPDDFGTYYCQQYNSYSSFGPGTKVDIK
notes: Human IgG4 Fc (prefix H4H)
B8: H4H6340P (antibody, V domains shown)
VH: EVQLVESGGGLVQPGGSLRLSCAASGFTFSSSAMSWVRQAPGKGLEWVSAISGSGVGTYYAASVKGRFTISRDNSKNILYLQMNDLRAEDTALYYCPKARTGTHAFDIWGQGTMVTVSS
VL: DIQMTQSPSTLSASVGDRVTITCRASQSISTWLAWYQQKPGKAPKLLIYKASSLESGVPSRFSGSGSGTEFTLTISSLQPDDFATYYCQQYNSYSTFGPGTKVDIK
notes: Human IgG4 Fc (prefix H4H)
B9: H4H6347P (antibody, V domains shown)
VH: B8 VH with S31N, S32Y, I78T, D85S, L93V
VL: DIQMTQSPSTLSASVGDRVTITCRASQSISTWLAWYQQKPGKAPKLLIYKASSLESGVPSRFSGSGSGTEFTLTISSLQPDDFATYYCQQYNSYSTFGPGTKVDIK
notes: Human IgG4 Fc (prefix H4H)
B10: H4H6343P (antibody, V domains shown)
VH: B8 VH with V5L, S32Y, A62D, I78T, D85S, L93V
VL: not shown
notes: Human IgG4 Fc (prefix H4H)
B11: H4H6334P2 (antibody, V domains shown)
VH: EVQLVESGGGLVKPGGSLRLSCAVSGFTFSIDWMIWVRQAPGTGLEWVGRIKRKTDGGTTDYAAPVKGRFTISRDDSKNTLYLQMNSLKTEDTAIYYCATGGFERWGQGTLVTVSS
VL: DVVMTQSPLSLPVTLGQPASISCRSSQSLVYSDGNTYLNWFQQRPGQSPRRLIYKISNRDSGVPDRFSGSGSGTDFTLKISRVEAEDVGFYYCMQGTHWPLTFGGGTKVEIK
notes: Human IgG4 Fc (prefix H4H)
B12: H4H6330P (antibody, V domains shown)
VH: EVQLVESGGGLVQPGGSLRLSCAASGFTFSNYAMSWVRQAPGKGLEWVSAVSGSGVGTYYADSVKGRFTISRDNSKNTLYLQMKSLSAEDTALYYCTKTLGGTHAFDIWGQGTMVTVSS
VL: B7 VL with T56S, L73V, S76N, G84A, P99Q, V103L, D104E
notes: Human IgG4 Fc (prefix H4H)
B13: H4H6332P (antibody, V domains shown)
VH: B12 VH with G9E, T28I, N31S, V51I, K84N, S87R, L93V, Y95F, T97A, G101S
VL: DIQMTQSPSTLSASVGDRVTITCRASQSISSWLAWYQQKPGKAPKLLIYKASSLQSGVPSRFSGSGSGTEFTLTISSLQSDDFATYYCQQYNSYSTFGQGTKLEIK
notes: Human IgG4 Fc (prefix H4H)
B14: H4H6316P (antibody, V domains shown)
VH: QVQLVESGGGVVQPGRSLRLSCEASGFTFSSYGMHWVRQAPGKGLEWVAVFWYDGSNKYYADSVKGRFTISRDNSKNTLYLQMNSLTAEDTAIYYCARAYDAFDIWGQGTMVTVSS
VL: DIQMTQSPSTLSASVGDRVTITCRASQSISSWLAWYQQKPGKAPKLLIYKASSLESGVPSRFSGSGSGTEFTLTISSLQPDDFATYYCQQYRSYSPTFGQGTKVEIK
notes: Human IgG4 Fc (prefix H4H)
B15: H4H6311P (antibody, V domains shown)
VH: B14 VH with E23A, S31T, Y53F, L79I, T87R
VL: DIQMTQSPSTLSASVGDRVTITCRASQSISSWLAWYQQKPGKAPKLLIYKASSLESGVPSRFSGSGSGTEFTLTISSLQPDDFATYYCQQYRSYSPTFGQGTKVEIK
notes: Human IgG4 Fc (prefix H4H)
B16: H4H6317P (antibody, V domains shown)
VH: B14 VH with E23A, F51L, S56R, T87R, I93V, A99S
VL: DIQMTQSPSTLSASVGDRVTITCRASQSISSWLAWFQQGPGRAPKLLIYKASTLQSGVPSRFSGSGSGTEFTLTISSLQPDDFATYYCQQYRSYSPTFGQGTKVEIK
notes: Human IgG4 Fc (prefix H4H)

Biological target: T1, human big-endothelin-1 (big-ET-1)
Experiment: SPR (Biacore T200), 37 C, mAb capture, peptide analyte
Description: (§1) Measurements were conducted on a T200 Biacore instrument (Biacore Life Sciences division of GE Healthcare, Piscataway, N.J.). […] Peptide binding was monitored for 3 min while dissociation of mAb-bound peptide was monitored for 4 min in HBST running buffer (0.01 M HEPES pH 7.4, 0.15 M NaCl, 3 mM EDTA, 0.005% v/v Surfactant P20). Kinetic association (kₐ) and dissociation (kd) rate constants were determined by processing and fitting the data to a 1:1 binding model using Scrubber 2.0 curve fitting software.

| Binder | Kd | T½ | koff | kon |
| --- | --- | --- | --- | --- |
| B1 | 0.0101 µM | 120 s | 0.00569 s⁻¹ | 565000 M⁻¹ s⁻¹ |
| B2 | 0.07 µM | 24 s | 0.0297 s⁻¹ | 424000 M⁻¹ s⁻¹ |
| B3 | 0.000297 µM | 3900 s | 0.000176 s⁻¹ | 595000 M⁻¹ s⁻¹ |
| B4 | 0.00102 µM | 600 s | 0.00116 s⁻¹ | 1.14e+06 M⁻¹ s⁻¹ |
| B5 | 0.0191 µM | 180 s | 0.00399 s⁻¹ | 209000 M⁻¹ s⁻¹ |
| B6 | – | 6 s | 0.12 s⁻¹ | 454000 M⁻¹ s⁻¹ |
| B7 | 0.0874 µM | 12 s | 0.058 s⁻¹ | 663000 M⁻¹ s⁻¹ |
| B8 | 0.011 µM | 30 s | 0.0249 s⁻¹ | 2.3e+06 M⁻¹ s⁻¹ |
| B9 | 0.0132 µM | 30 s | 0.0239 s⁻¹ | 1.81e+06 M⁻¹ s⁻¹ |
| B10 | – | 36 s | 0.018 s⁻¹ | 1.61e+06 M⁻¹ s⁻¹ |
| B11 | 0.225 µM | 18 s | 0.0349 s⁻¹ | 155000 M⁻¹ s⁻¹ |
| B12 | 0.0229 µM | 24 s | 0.0324 s⁻¹ | 1.42e+06 M⁻¹ s⁻¹ |
| B13 | 0.0295 µM | 18 s | 0.0429 s⁻¹ | 1.45e+06 M⁻¹ s⁻¹ |
| B14 | 0.0148 µM | 1620 s | 0.000428 s⁻¹ | 28800 M⁻¹ s⁻¹ |
| B15 | 0.0152 µM | 2400 s | 0.000292 s⁻¹ | 19200 M⁻¹ s⁻¹ |
| B16 | 0.00542 µM | 3480 s | 0.000199 s⁻¹ | 36700 M⁻¹ s⁻¹ |

Biological target: T2, mouse big-ET-1
Experiment: as above
Description: as §1

| Binder | Kd | T½ | koff | kon |
| --- | --- | --- | --- | --- |
| B1 | 0.0329 µM | 36 s | 0.0192 s⁻¹ | 580000 M⁻¹ s⁻¹ |
| B3 | 0.019 µM | 3120 s | 0.000223 s⁻¹ | 11600 M⁻¹ s⁻¹ |
| B4 | 0.8 µM | 300 s | 0.00236 s⁻¹ | 2900 M⁻¹ s⁻¹ |
| B6 | – | 0.6 s | 0.885 s⁻¹ | 190000 M⁻¹ s⁻¹ |
| B7 | 0.065 µM | 6 s | 0.0974 s⁻¹ | 1.5e+06 M⁻¹ s⁻¹ |
| B8 | 0.047 µM | 12 s | 0.0603 s⁻¹ | 1.3e+06 M⁻¹ s⁻¹ |
| B9 | 0.013 µM | 18 s | 0.0414 s⁻¹ | 3.1e+06 M⁻¹ s⁻¹ |
| B10 | – | 18 s | 0.0453 s⁻¹ | 1.8e+06 M⁻¹ s⁻¹ |
| B12 | 0.05 µM | 12 s | 0.072 s⁻¹ | 1.5e+06 M⁻¹ s⁻¹ |
| B13 | 0.1 µM | 6 s | 0.196 s⁻¹ | 2e+06 M⁻¹ s⁻¹ |

Biological target: T3, small-ET-1 (endothelin-1)
Experiment: as above
Description: as §1

| Binder | binding result |
| --- | --- |
| B1 | no binding |
| B2 | no binding |
| B3 | no binding |
| B4 | no binding |
| B5 | no binding |
| B6 | no binding |
| B7 | no binding |
| B8 | no binding |
| B9 | no binding |
| B10 | no binding |
| B11 | no binding |
| B12 | no binding |
| B13 | no binding |
| B14 | no binding |
| B15 | no binding |
| B16 | no binding |

Biological target: T1, human big-endothelin-1 (big-ET-1)
Experiment: cell-based or functional assay

| Binder | Blocking IC50(M), 10 nM hBig-ET-1 + 3 nM hECE1; 293/ETaR/NFAT-Luc luciferase |
| --- | --- |
| B1 | 7.6e-09 M |
| B2 | 4.17e-08 M |
| B3 | 3.3e-09 M |
| B4 | 1.8e-09 M |
| B8 | 2.1e-09 M |
| B9 | 1.5e-09 M |
| B12 | 1.7e-09 M |
| B13 | 3.1e-09 M |

Biological target: T2, mouse big-ET-1
Experiment: cell-based or functional assay

| Binder | Blocking IC50(M), 20 nM mBig-ET-1 + 5 nM mECE1; 293/ETaR/NFAT-Luc luciferase |
| --- | --- |
| B1 | 4e-09 M |
| B3 | > 1e-07 M |
| B4 | > 1e-07 M |
| B8 | 1.5e-09 M |
| B9 | 1e-09 M |
| B12 | 1.6e-09 M |
| B13 | 1.2e-09 M |
| B14 | > 1e-07 M |
| B16 | > 1e-07 M |

Biological target: T1, human big-endothelin-1 (big-ET-1)
Experiment: cell-based or functional assay
Remark: another data set of the same source

| Binder | Blocking IC50(M), 10 nM hBig-ET-1 + 3 nM hECE1 [Trial 1]; 293/ETaR/NFAT-Luc luciferase |
| --- | --- |
| B5 | 1.9e-09 M |
